Data on seven molecules can be found in US9725708B2, “Methods of modulating ubiquitin ligase activity” (Board of Supervisors of Louisiana State University and …, priority 2012, dated 2017).

Data set [1] has as its target T1, UbcH7˜ubiquitin thioester (Homo sapiens, UniProt P68036).
T1 construct: made in house
Briefly: Kinetics of 125I-polyubiquitin chain formation by E6AP ligase forms with respect to [UbcH7]o. The format is biochemical. The method, then:
(§1) E6AP-catalyzed ^125I-Ubiquitin Conjugation Assay: The E3 ligase activity of recombinant E6AP ligase was quantitated in kinetic assays under initial velocity conditions (Ronchi et al., (2013) J. Biol. Chem. 288, 10349-10360, Ronchi & Haas (2012) Methods Mol. Biol. 832: 197-218). Rates of E6AP-catalyzed ^125I-polyubiquitin chain formation were measured at 37° C. in incubations of 25-μl final volume containing 50 mM Tris-HCl (pH 7.5), 1 mM ATP, 10 mM MgCl2, 1 mM DTT, 10 mM creatine phosphate, 1 IU of creatine phosphokinase, 5 μM ^125I-ubiquitin (approximately 1.5×10^4 cpm/pmol), 50 nM human Uba1, and the indicated concentrations of UbcH7 and E6AP ligase (Siepmann et al., (2003) J. Biol. Chem. 278: 9448-9457; Baboshina et al., (2001) J. Biol. Chem. 276: 39428-39437).
(§2) Reactions were initiated by the addition of ^125I-ubiquitin. After 10-30 min, the reactions were quenched by the addition of 25 μl of 2×SDS sample buffer containing 0.3% (v/v) β-mercaptoethanol, and then the samples were heated to 100° C. for 3 min. The polyubiquitin conjugates were resolved from free ^125I-ubiquitin by 12% (w/v) SDS-PAGE under reducing conditions at 4° C. and visualized by autoradiography of the dried gels.
(§3) Polyubiquitin chain formation was measured by excising lanes between the top of the resolving gel and the top of the stacker gel, representing anchored and free ^125I-polyubiquitin chains, respectively, and quantitating associated ^125I-ubiquitin by γ-counting. Absolute rates of ^125I-polyubiquitin chain formation were calculated from the associated radioactivity and the corrected specific radioactivity for ^125I-ubiquitin. Datum points represent single assay determinations, and complete data sets were evaluated by non-linear regression analysis using GraFit version 5.0 (Erithicus). Active Uba1, E2, and E6AP ligase were independently determined in parallel by their stoichiometric formation of ^125I-ubiquitin thioester.

For data set [2], the system named is E6AP ligase. Briefly: E6AP-catalyzed 125I-polyubiquitin chain formation, initial rates. The format is biochemical, Human. The note with it: free GST less than 5 μM; GST-E6AP. The procedure: as §1, §2, §3
Data set [3] deals with T2, GST (Schistosoma japonicum, UniProt P08515). Briefly: GST dimerization. It counts as binding. The following applies: predicted from ΔΔGbinding of GST-E6APΔ495 vs E6APΔ495.
Data set [4] has as its target T2, GST. The following applies: literature value, cited from earlier work.
In data set [5] the target is T3, E6AP ligase (Homo sapiens, UniProt Q05086).
T3 construct: corresponding to full-length GST-E6AP; made in house; host or cells: E. coli
T3 sequence (Q05086 1-872 isoform Q05086-3): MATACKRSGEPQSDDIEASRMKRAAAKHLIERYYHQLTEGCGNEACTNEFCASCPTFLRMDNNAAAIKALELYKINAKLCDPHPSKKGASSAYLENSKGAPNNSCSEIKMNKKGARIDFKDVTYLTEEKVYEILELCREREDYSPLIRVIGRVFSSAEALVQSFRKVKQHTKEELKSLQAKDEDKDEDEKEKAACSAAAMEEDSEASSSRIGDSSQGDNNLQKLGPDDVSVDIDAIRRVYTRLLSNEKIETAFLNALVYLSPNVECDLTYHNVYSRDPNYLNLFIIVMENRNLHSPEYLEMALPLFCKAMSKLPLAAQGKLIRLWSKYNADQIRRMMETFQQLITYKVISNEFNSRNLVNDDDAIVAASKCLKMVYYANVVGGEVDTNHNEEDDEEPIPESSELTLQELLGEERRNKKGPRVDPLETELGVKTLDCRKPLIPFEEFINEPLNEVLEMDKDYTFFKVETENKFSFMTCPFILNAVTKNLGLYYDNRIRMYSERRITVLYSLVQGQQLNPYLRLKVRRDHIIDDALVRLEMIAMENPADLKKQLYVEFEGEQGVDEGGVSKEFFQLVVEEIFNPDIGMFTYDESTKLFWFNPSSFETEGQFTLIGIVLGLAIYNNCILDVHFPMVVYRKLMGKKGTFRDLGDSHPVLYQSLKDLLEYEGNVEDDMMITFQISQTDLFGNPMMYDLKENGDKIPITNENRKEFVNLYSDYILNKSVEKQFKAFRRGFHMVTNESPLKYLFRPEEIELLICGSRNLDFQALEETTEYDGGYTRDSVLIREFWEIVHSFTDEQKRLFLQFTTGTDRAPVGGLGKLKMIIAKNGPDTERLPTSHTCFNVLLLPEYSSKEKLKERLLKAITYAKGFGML
Briefly: E6AP-catalyzed 125I-polyubiquitin chain formation, initial rates. The format is biochemical. The following applies: for mode of action: with respect to [UbcH7]o. The method, then: as §1, §2, §3

The target of the next data set is T4, His6-E6AP ligase (Homo sapiens, UniProt Q05086).
T4 construct: Full-length recombinant His6-E6AP ligase was isolated from the medium; made in house; host or cells: Sf9 insect cells (baculovirus)
T4 sequence (Q05086 1-872 isoform Q05086-3): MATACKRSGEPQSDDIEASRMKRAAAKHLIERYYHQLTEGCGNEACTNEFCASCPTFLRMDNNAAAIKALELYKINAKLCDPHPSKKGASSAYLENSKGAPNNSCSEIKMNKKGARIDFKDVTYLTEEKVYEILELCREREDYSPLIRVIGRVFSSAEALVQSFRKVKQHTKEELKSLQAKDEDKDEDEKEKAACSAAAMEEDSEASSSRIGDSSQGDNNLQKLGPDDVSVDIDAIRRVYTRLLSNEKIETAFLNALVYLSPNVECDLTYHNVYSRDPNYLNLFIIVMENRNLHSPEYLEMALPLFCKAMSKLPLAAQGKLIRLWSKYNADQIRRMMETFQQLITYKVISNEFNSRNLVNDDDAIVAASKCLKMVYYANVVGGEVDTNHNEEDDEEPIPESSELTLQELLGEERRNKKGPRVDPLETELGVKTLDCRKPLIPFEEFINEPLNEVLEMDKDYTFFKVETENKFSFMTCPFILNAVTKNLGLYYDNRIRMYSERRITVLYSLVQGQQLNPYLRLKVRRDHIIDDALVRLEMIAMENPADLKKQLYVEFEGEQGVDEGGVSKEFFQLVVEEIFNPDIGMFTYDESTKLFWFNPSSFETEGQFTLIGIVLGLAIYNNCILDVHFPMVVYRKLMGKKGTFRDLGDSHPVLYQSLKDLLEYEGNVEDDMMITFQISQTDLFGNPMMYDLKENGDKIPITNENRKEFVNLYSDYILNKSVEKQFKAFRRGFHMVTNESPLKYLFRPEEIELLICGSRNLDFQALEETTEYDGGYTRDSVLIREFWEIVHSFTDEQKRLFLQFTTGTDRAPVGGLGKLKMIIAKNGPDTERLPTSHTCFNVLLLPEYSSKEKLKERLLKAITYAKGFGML
Briefly: Static light-scattering of His6-E6AP ligase oligomer. The procedure:
Static Light-scattering Measurements: His6-E6AP ligase after the His trap affinity purification step was further purified by FPLC using a Mono Q 5/50 column (Amersham Biosciences) equilibrated in 50 mM Tris-HCl (pH 7.5) and 1 mM DTT. Recombinant His6-E6AP ligase eluted at 300 mM NaCl in a 0-500 mM gradient (16 mM/ml, 1 ml/min). The molecular weight of His6-E6AP ligase was determined in solution at 37° C. by static light-scattering using a 235-DynaPro NanoStar laser light-scattering spectrometer at 663 nm wavelength (Wyatt Technology Corp.). Spectra were collected for 18 μM His6-E6AP ligase in 50 mM Tris-HCl (pH 7.5) containing 200 mM NaCl. The effect of Ac-PheNH2 on the molecular weight of His6-E6AP ligase was determined in 50 mM Tris-HCl (pH 7.5) containing 200 mM NaCl, 16 μM His6-E6AP ligase total protein, 61 mM Ac-PheNH2, and 8% (v/v) carrier methanol. The molecular weight of E6AP ligase was also evaluated in reactions containing 0-350 μM Ac-NRIRMYSERRITVLYSL (SEQ ID NO: 1) in 50 mM Tris-HCl (pH 7.5), 250 mM NaCl, 1 mM DTT, and 17 μM His6-E6AP. Data were analyzed with Dynamics® software at both default and maximum sensitivity to detect the presence of low concentrations of E6AP ligase oligomeric forms.

[6] abbreviates: Table 1, Hect domain row is monoubiquitination.
[7] abbreviates: non-competitive with respect to [UbcH7]o, His6-E6AP, read-out: Ki.

Read-outs that look alike come from different tables or passages of the source. No end group written: not given here.

T1 sequence (P68036 whole entry, other chains not shown): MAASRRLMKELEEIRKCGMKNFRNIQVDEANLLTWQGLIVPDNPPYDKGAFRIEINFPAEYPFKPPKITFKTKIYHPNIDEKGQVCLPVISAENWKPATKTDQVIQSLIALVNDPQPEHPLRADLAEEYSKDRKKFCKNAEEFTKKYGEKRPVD
T2 sequence (P08515 whole entry): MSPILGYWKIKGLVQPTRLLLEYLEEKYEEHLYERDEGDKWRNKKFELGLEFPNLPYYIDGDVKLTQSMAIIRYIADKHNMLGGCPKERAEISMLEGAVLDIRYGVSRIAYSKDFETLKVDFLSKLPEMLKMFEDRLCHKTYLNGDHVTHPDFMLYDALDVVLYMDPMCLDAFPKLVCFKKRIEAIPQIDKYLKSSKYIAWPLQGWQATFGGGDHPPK

For the molecule “Homogeneous His6-E6AP: baculoviral-expressed full-length His6-E6AP ligase”, in data set [1], the Km was 0.046 ± 0.007 µM, the kcat is 0.63 ± 0.03 s⁻¹ and the “kcat higher than heterogeneous GST-E6AP” value amounted to 20 fold. Besides, the kcat in data set [1] (Table 1) is 6.3 ± 0.3 × 10^−1 s^−1. Further, the Km in data set [1] (setting [6]) is 0.046 ± 0.007 µM.
As to “GST: recombinant free glutathione-S-transferase”, the “K½ of decrease in initial rate of polyubiquitin chain formation” value in the data set on E6AP ligase [2] is “approximately 1 μm”. For the same molecule, in the data set with GST [3], the “Kd for GST association” value is 1.6 µM. Further, the Kd with GST [4] (b128, read-out: Kd for GST dimerization) was 0.6 µM. In addition, the “Kd for GST association, published value” in the data set with GST [4] (b130) is 0.6 µM.
Take “Ac-NRIRMYSERRITVLYSL [Ac-NRIRMYSERRITVLYSL peptide, Ac-NRIRMYSERRITVLYSL]”: at E6AP ligase [5] (His6-E6AP, hyperbolic dependence, semi-reciprocal plot, read-out: Ki (apparent)), the Ki amounted to 22 ± 2 µM. Also, the mode of action result at E6AP ligase [5] was “non-competitive inhibitor”. Moreover, at His6-E6AP ligase, the “effect on E6AP ligase oligomer” value is listed as “promotes dissociation”.
For `CC(=O)N[C@@H](Cc1ccccc1)C(N)=O` [Ac-PheNH2, N-acetyl-L-phenylalanylamide], the Ki was found to be 12000 ± 3000 µM on E6AP ligase [5] (125I-polyubiquitin chain formation, read-out: Ki) and 12000 ± 3000 µM at E6AP ligase [5] (His6-E6AP, non-competitive with respect to [UbcH7]o, absence or presence of 44 mM Ac-PheNH2, read-out: Ki). In addition, the “effect on polyubiquitin chain formation” value on E6AP ligase [5] (inhibitors, at higher concentrations) is on record as “quantitative inhibition”. Also, the mode of action result on E6AP ligase [5] is recorded as “non-competitive inhibitor”. Besides, the “effect on E6AP ligase oligomer” value at His6-E6AP ligase was “disrupts trimer formation”. The “molecular weight of His6-E6AP ligase peak after addition” value at His6-E6AP ligase (61 mM Ac-PheNH2, 16 μM His6-E6AP, 8% methanol) is 104 kDa.

B1: E6(HPV16)Ct: recombinant E6 C-terminal domain encompassing residues 89-158 (protein, UniProt P03126 89-158, looked up, fragment)
chain: SLYGTTLEQQYNKPLCDLLIRCINCQKPLCPEEKQRHLDKKQRFHNIRGRWTGRCMSCCRSSRTRRETQL
Turning to B1, in the data set with E6AP ligase [5] (setting [7]), the Ki stood at 4 µM. Besides, in the data set with E6AP ligase [5], the mode of action entry is on record as “non-competitive inhibitor”.

B2: E6(HPV16)Δ91: recombinant E6 N-terminal domain encompassing residues 1-91 (protein, UniProt P03126 1-91, looked up, fragment)
chain: MHQKRTAMFQDPQERPRKLPQLCTELQTTIHDIILECVYCKQQLLRREVYDFAFRDLCIVYRDGNPYAVCDKCLKFYSKISEYRHYCYSLY
For the molecule B2, the Ki with E6AP ligase [5] (hyperbolic concentration dependence, not shown, read-out: apparent Ki) worked out at 4 µM; in the data set with E6AP ligase [5] (setting [7]), 6 µM. In addition, the mode of action result in the data set with E6AP ligase [5] is “non-competitive inhibition”.

B3: GST-E6AP ligase Hect domain: GST fusion of E6AP ligase Hect domain residues 450-852 (protein, UniProt Q05086 450-852, looked up, fragment)
chain: INEPLNEVLEMDKDYTFFKVETENKFSFMTCPFILNAVTKNLGLYYDNRIRMYSERRITVLYSLVQGQQLNPYLRLKVRRDHIIDDALVRLEMIAMENPADLKKQLYVEFEGEQGVDEGGVSKEFFQLVVEEIFNPDIGMFTYDESTKLFWFNPSSFETEGQFTLIGIVLGLAIYNNCILDVHFPMVVYRKLMGKKGTFRDLGDSHPVLYQSLKDLLEYEGNVEDDMMITFQISQTDLFGNPMMYDLKENGDKIPITNENRKEFVNLYSDYILNKSVEKQFKAFRRGFHMVTNESPLKYLFRPEEIELLICGSRNLDFQALEETTEYDGGYTRDSVLIREFWEIVHSFTDEQKRLFLQFTTGTDRAPVGGLGKLKMIIAKNGPDTERLPTSHTCFNVLLLPEY
modifications: HECT domain GST fusion
Turning to B3, in data set [1], the Km was 0.089 ± 0.011 µM and the “kcat lower than full-length E6AP ligase” value was found to be 2000 fold. Further, the kcat in data set [1] (Table 1) is given as 3.2 ± 0.1 × 10^−4 s^−1. In addition, the Km in data set [1] (setting [6]) was 0.089 ± 0.011 µM.
